T1: myristoylated Gal3p (Myr-Gal3p) (yeast, UniProt P13045 1-520, limits assumed, N-myristoylation (acylation) at the N-terminal signal)
T1 construct: also called membrane-associated Gal3p
T1 sequence: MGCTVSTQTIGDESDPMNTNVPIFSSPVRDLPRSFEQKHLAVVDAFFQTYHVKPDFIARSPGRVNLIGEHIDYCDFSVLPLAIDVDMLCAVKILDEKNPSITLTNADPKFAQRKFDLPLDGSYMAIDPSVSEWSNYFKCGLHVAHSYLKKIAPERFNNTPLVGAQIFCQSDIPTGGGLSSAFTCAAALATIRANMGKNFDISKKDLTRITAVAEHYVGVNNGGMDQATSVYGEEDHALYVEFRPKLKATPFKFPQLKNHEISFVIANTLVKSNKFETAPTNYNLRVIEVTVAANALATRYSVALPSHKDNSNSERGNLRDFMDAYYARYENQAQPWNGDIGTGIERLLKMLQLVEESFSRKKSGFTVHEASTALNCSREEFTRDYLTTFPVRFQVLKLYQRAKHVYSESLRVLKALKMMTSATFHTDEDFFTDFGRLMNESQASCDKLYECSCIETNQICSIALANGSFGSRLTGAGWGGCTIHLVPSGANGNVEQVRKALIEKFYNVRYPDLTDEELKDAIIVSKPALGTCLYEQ

B1: wild type Gal3p (other, yeast, UniProt P13045 1-520, looked up)
chain: MNTNVPIFSSPVRDLPRSFEQKHLAVVDAFFQTYHVKPDFIARSPGRVNLIGEHIDYCDFSVLPLAIDVDMLCAVKILDEKNPSITLTNADPKFAQRKFDLPLDGSYMAIDPSVSEWSNYFKCGLHVAHSYLKKIAPERFNNTPLVGAQIFCQSDIPTGGGLSSAFTCAAALATIRANMGKNFDISKKDLTRITAVAEHYVGVNNGGMDQATSVYGEEDHALYVEFRPKLKATPFKFPQLKNHEISFVIANTLVKSNKFETAPTNYNLRVIEVTVAANALATRYSVALPSHKDNSNSERGNLRDFMDAYYARYENQAQPWNGDIGTGIERLLKMLQLVEESFSRKKSGFTVHEASTALNCSREEFTRDYLTTFPVRFQVLKLYQRAKHVYSESLRVLKALKMMTSATFHTDEDFFTDFGRLMNESQASCDKLYECSCIETNQICSIALANGSFGSRLTGAGWGGCTIHLVPSGANGNVEQVRKALIEKFYNVRYPDLTDEELKDAIIVSKPALGTCLYEQ
B2: Myr-Gal4AD (other, yeast)
chain: MGCTVSTQTIGDESDPPLTPSALFGGANFNQSGNIADSSLSFTFTNSSNGPNLITTQTNSQALSQPIASSNVHDNFMNNEITASKIDDGNNSKPLSPGWTDQTAYNAFGITTGMFNTTTMDDVYNYLFDDEDTPPNPKKE
modifications: N-myristoylation at the N-terminal signal
notes: range 758-881; also called membrane-localized Gal4AD
B3: Gal80-GFP (other, yeast, UniProt P04387 1-435, looked up)
chain: MDYNKRSSVSTVPNAAPIRVGFVGLNAAKGWAIKTHYPAILQLSSQFQITALYSPKIETSIATIQRLKLSNATAFPTLESFASSSTIDMIVIAIQVASHYEVVMPLLEFSKNNPNLKYLFVEWALACSLDQAESIYKAAAERGVQTIISLQGRKSPYILRAKELISQGYIGDINSIEIAGNGGWYGYERPVKSPKYIYEIGNGVDLVTTTFGHTIDILQYMTSSYFSRINAMVFNNIPEQELIDERGNRLGQRVPKTVPDHLLFQGTLLNGNVPVSCSFKGGKPTKKFTKNLVIDIHGTKGDLKLEGDAGFAEISNLVLYYSGTRANDFPLANGQQAPLDPGYDAGKEIMEVYHLRNYNAIVGNIHRLYQSISDFHFNTKKIPELPSQFVMQGFDFEGFPTLMDALILHRLIESVYKSNMMGSTLNVSNISHYSL
notes: Order of parts follows the name Gal80-GFP; also called Gal80p fused to green fluorescent protein; not shown: green fluorescent protein (GFP amplified from pYGFP1)
B4: Gal80p (other, yeast, UniProt P04387 1-435, looked up)
chain: B3 chain

Tests used:
Gal80p [1] = molecular target: B4; assay: cell-based or functional assay
Gal80p [2] = molecular target: B4; assay: membrane-tethered Gal4AD in yeast with a UASGAL-HIS3 reporter, growth without galactose
From the text: FIG. 7. Membrane targeted transcriptional activation domain of Gal4p (Gal4AD; a.a. 758-881) activates HIS3 reporter gene expression. A yeast strain harboring a UASGAL-HIS3 reporter was transformed with Myr-Gal4AD. […] Transformed cells were spotted on synthetic medium plates lacking histidine, tryptophan and uracil and containing 3% glycerol/2% lactic acid as carbon source.

[3] = molecular target: T1, myristoylated Gal3p (Myr-Gal3p); assay: fluorescence microscopy of yeast Sc786 co-expressing Gal80-GFP and Myr-Gal3p, galactose induced
wild type Gal3p = molecular target: B1; assay: conclusion from Examples 1-3 (localisation, reporter induction, chromatin immunoprecipitation) in yeast with galactose
Gal4p = Gal4p (yeast, UniProt P04386 1-881); assay: formaldehyde cross-linking and chromatin immunoprecipitation at UASGAL, wild type yeast, un-induced and galactose induced
Sequence of Gal4p (P04386 whole entry, the tested form may be a part): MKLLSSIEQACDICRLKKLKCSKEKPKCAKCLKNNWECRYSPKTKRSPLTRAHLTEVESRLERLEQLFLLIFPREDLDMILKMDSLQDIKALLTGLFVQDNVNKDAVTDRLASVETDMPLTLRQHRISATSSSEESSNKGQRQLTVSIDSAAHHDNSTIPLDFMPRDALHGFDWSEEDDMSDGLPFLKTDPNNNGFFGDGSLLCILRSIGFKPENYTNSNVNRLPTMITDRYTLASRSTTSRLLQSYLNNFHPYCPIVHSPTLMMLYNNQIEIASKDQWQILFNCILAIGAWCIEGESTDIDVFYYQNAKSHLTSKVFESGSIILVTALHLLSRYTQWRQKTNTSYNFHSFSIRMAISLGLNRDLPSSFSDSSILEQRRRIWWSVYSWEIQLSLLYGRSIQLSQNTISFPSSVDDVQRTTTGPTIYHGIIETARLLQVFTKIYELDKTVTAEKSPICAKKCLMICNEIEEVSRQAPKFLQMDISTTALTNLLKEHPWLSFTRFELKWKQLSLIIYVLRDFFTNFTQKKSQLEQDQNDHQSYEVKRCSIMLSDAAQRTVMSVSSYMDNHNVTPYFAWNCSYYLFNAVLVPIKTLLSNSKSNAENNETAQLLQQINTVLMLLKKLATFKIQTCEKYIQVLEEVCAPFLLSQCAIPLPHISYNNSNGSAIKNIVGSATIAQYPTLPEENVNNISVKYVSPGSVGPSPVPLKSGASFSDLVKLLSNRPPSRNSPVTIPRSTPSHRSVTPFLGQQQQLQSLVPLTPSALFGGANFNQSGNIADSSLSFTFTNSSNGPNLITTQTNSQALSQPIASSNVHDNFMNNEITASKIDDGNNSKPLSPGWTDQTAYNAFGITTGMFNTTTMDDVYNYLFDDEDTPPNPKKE
Procedure: Fold enrichments are indicated (enrichment). […] FIG. 3C illustrates quantitation of promoter occupancy by Gal4p, Gal80p and Gal3p in un-induced and induced cells. Values are means (±standard deviation) of at least five experiments carried out with two sets of independently prepared chromatin samples.
Chromatin immunoprecipitations were performed as described by Braunstein et al., 1993, Genes Dev. 7: 592-604 and Kuras et al. 1999, Nature 399: 609-613. Briefly, wild type Sc723 cells (Blank et al., 1997, Mol. Cell. Biol. 17: 2566-2575) were grown to early exponential growth phase (as measured by absorbance at 600 nm ˜0.4) in 250 mL yeast extract-peptone medium containing 2% glycerol, 3% lactic acid, and 0.05% glucose (−galactose, un-induced). For galactose-induced cultures, galactose was added to the un-induced cultures to a final concentration of 2% and the cultures were incubated for an additional 20 minutes. Formaldehyde was added to a final concentration of 1%, the cultures were incubated for 20 minutes at room temperature, and glycine was added to a final concentration of 300 mM. All the following steps were carried out at 4° C. Cells were washed twice with TBS (20 mM Tris-HCl, 150 mM NaCl, pH 8.0), resuspended in 1 mL lysis buffer (50 mM Tris-HCl pH 8.0, 10 mM EDTA, 1% SDS, 1 mM PMSF), and disrupted by vortexing with glass beads. […]

B1 was tested, and the “reduction in MEL1 gene expression level” value (Gal80p [1]) was 2 fold.

B2: binds (Gal80p [2]).

B3: binds [3].

B4: binds (wild type Gal3p); binds (Gal4p).
